This test deals with extracellular domain of human AXL (corresponding to sAXL) fused to C-terminal Fc (UniProt P30530). The experiment in a line: SEC-MALS; human sAXL-Fc in solution; protein-conjugate analysis (protein 140 kDa, glycans ~25 kDa, total 165 kDa); conditions in the Supplemental Material.

For “extracellular domain of human AXL (corresponding to sAXL) fused to C-terminal Fc (from UniProt P30530 26-451) (Fc fusion)”, the stoichiometry N (usually the number of molecules, sites or subunits per partner or assembly) was determined as 2.

For the origin of these results see PMC11245488.
